From US20220119490A1 (Genentech, published 2022)

T1: PTPRO expressed on cells (human, UniProt Q16827 30-1216)
T1 construct: whole, on cells
T1 sequence (looked up): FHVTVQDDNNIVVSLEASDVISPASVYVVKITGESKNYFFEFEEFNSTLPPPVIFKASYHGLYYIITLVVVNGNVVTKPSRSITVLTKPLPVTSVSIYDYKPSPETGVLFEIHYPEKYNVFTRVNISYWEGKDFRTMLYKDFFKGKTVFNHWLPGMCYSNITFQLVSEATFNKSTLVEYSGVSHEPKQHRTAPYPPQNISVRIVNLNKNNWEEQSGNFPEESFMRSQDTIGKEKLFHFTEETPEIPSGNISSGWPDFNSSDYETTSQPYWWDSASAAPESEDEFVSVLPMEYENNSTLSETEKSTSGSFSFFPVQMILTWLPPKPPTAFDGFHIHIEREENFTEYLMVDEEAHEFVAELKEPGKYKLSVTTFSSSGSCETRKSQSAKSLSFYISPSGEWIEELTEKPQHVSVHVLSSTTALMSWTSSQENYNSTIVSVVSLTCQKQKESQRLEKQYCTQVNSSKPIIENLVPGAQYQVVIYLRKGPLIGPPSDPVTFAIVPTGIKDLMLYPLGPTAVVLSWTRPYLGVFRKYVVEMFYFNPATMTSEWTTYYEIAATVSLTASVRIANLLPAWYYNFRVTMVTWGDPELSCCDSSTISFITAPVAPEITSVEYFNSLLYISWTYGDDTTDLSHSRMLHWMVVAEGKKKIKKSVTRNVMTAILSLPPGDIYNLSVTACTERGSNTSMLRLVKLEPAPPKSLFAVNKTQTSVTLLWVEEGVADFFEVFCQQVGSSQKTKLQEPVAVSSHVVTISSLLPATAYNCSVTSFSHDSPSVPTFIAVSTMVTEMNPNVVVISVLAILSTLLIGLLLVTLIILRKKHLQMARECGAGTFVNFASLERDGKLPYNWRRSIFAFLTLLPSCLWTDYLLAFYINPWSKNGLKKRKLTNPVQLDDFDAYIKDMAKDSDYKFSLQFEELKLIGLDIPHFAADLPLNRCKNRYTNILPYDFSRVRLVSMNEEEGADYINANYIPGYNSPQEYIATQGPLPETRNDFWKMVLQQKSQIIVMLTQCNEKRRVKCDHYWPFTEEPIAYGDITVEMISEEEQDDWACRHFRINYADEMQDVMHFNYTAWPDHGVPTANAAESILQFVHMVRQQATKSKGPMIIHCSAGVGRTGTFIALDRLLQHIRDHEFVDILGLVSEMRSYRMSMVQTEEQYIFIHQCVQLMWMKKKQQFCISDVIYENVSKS

T2: PTPRD S431L variant extracellular domain (human, UniProt P23468 21-1265)
T2 construct: extracellular domain; also called FN2 mutant
T2 sequence (looked up): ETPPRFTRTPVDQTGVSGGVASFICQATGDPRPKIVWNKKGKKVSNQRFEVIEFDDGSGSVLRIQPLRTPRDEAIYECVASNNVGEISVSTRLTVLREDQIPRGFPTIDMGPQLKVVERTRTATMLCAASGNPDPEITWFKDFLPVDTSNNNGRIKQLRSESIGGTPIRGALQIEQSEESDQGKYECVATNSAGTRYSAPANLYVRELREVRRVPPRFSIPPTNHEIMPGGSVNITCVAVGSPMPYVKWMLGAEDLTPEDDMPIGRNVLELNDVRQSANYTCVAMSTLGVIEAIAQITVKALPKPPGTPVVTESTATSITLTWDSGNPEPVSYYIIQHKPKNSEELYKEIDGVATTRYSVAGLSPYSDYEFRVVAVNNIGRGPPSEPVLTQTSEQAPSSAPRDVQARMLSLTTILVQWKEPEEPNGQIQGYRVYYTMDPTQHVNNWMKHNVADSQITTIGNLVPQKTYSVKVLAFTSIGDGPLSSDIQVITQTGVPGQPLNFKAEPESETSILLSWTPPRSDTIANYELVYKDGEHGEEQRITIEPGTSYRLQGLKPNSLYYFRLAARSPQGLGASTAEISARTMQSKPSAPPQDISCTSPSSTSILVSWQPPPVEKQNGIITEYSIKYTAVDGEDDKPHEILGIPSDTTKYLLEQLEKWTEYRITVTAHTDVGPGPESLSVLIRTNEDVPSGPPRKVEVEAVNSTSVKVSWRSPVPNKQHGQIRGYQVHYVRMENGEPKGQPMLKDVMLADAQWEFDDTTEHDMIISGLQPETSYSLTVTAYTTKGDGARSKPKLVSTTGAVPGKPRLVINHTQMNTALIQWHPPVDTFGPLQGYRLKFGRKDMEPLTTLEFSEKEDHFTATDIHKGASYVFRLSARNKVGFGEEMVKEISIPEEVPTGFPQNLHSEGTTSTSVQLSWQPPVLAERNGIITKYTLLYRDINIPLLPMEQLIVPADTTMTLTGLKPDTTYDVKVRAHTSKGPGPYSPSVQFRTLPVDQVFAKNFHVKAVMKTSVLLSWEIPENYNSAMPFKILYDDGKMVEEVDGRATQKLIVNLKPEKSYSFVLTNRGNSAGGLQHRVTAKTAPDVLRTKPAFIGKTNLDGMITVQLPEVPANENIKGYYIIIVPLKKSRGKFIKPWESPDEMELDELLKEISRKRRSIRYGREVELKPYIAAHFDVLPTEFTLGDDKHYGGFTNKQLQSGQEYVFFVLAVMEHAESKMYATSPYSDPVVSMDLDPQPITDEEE


What was measured:
PTPRF expressed on cells = biological target: T3, PTPRF expressed on cells (human, UniProt P10586 30-1907); assay: cell surface interaction assay: query ECD tetramerised with fluorescent streptavidin on transfected cells, immunofluorescence
T3 construct: whole, on cells; also called receptor-type tyrosine-protein phosphatase F

PTPRS expressed on cells = biological target: T4, PTPRS expressed on cells (human, UniProt Q13332 30-1948); assay: as above
T4 construct: whole, on cells; also called receptor-type tyrosine-protein phosphatase S

PTPRM expressed on cells = biological target: T5, PTPRM expressed on cells (human, UniProt P28827 21-1452); assay: as above
T5 construct: whole, on cells

PTPRO expressed on cells = biological target: T1, PTPRO expressed on cells; assay: as above
[1] = biological target: T2, PTPRD S431L variant extracellular domain; assay: extracellular interaction screen: pentameric PTPRD variant ECD on ECD-Fc prey (FIG. 5L)

T5 sequence (P28827 21-1452): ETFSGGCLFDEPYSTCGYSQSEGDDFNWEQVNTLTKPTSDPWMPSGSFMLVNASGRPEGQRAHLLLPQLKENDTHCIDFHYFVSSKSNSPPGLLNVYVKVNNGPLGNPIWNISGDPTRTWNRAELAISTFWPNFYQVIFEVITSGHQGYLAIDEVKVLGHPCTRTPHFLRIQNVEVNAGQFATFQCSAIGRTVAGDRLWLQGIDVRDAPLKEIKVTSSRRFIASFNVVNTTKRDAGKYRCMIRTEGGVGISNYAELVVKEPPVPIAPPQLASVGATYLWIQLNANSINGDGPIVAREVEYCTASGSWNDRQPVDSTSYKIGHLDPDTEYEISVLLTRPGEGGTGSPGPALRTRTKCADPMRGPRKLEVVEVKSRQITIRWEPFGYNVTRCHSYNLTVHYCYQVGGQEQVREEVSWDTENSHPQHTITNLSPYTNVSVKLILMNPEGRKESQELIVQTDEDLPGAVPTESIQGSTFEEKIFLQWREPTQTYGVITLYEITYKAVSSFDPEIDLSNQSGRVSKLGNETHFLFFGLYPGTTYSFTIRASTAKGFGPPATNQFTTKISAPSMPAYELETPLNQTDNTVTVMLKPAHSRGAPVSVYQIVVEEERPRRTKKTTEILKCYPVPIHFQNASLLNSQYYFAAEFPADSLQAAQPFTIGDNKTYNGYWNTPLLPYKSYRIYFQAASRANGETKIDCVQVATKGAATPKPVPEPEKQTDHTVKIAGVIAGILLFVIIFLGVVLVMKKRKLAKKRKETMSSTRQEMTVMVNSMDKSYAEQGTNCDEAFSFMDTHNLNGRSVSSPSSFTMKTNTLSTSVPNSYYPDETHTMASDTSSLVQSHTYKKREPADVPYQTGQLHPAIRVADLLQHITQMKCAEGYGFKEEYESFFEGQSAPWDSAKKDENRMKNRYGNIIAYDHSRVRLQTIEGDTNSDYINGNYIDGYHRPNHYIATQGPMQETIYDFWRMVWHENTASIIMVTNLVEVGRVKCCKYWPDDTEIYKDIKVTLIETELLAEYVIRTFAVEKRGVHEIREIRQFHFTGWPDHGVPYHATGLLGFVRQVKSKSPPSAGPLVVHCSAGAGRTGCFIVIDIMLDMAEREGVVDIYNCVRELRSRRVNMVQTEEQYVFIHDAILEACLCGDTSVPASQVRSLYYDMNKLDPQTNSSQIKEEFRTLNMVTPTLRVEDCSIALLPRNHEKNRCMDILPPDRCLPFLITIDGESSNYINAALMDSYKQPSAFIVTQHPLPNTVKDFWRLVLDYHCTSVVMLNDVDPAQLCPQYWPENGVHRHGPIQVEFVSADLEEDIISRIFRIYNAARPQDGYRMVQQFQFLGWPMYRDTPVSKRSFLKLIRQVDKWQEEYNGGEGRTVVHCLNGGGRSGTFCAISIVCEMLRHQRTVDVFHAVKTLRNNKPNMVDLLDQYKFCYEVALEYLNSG
T3 sequence (P10586 30-1907): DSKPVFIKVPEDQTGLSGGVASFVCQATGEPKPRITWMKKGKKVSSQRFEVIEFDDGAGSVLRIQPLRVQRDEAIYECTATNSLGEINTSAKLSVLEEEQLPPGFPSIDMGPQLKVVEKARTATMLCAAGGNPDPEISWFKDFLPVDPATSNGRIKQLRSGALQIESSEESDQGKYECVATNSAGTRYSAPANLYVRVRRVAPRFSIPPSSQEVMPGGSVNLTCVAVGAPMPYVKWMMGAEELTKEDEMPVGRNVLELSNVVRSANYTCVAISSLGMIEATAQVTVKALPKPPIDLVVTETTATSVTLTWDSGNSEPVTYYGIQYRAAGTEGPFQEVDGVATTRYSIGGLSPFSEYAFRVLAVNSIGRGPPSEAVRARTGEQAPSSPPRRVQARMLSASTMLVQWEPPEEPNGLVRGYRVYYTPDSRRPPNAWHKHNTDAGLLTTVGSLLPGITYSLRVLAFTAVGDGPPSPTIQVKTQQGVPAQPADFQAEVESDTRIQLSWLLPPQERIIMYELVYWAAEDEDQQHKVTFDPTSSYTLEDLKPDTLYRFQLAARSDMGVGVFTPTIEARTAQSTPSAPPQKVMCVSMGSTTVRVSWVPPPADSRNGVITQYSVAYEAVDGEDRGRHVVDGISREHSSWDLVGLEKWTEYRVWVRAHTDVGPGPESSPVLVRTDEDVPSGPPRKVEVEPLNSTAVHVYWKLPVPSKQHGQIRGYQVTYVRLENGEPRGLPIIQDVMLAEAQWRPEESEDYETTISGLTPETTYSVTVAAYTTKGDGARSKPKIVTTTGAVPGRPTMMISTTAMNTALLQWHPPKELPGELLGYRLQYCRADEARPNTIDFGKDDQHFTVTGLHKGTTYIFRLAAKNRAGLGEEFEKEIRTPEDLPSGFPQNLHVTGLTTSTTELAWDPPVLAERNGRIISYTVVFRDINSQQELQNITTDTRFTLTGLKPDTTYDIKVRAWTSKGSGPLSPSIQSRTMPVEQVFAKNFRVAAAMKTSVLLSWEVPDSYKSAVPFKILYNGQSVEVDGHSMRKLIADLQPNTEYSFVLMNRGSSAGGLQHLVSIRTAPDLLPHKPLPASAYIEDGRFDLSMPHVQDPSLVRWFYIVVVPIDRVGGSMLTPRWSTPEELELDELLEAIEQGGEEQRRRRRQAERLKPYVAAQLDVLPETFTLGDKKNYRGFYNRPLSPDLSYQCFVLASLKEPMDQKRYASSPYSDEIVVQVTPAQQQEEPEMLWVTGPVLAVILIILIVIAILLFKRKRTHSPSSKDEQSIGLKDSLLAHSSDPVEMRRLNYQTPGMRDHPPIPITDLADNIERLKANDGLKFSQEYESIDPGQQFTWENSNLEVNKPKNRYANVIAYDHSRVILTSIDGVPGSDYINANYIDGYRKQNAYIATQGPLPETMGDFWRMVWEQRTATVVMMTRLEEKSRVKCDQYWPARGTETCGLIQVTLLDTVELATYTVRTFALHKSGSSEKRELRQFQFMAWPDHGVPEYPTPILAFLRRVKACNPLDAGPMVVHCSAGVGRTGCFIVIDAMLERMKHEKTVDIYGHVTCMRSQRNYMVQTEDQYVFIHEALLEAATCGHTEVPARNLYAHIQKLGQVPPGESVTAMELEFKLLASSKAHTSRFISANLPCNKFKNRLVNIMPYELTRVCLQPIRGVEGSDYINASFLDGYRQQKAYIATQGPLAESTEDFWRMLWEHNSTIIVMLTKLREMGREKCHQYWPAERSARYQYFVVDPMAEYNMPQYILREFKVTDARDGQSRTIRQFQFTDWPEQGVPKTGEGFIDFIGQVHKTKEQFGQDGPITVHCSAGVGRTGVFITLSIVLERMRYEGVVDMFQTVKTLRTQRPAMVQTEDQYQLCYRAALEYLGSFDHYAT

Row | binding result (PTPRF expressed on cells) | binding result (PTPRS expressed on cells) | binding result (PTPRM expressed on cells) | binding result (PTPRO expressed on cells) | binding result [1] | Binder
1 | no binding | no binding | no binding | no binding | – | CNTN1 extracellular domain (receptor, human, UniProt Q12860 21-993, looked up, extracellular domain; Streptavidin tetramer in cell assays; ECD-Fc in SPR; also called contactin 1) EFTWYRRYGHGVSEEDKGFGPIFEEQPINTIYPEESLEGKVSLNCRARASPFPVYKWRMNNGDVDLTSDRYSMVGGNLVINNPDKQKDAGIYYCLASNNYGMVRSTEATLSFGYLDPFPPEERPEVRVKEGKGMVLLCDPPYHFPDDLSYRWLLNEFPVFITMDKRRFVSQTNGNLYIANVEASDKGNYSCFVSSPSITKSVFSKFIPLIPIPERTTKPYPADIVVQFKDVYALMGQNVTLECFALGNPVPDIRWRKVLEPMPSTAEISTSGAVLKIFNIQLEDEGIYECEAENIRGKDKHQARIYVQAFPEWVEHINDTEVDIGSDLYWPCVATGKPIPTIRWLKNGYAYHKGELRLYDVTFENAGMYQCIAENTYGAIYANAELKILALAPTFEMNPMKKKILAAKGGRVIIECKPKAAPKPKFSWSKGTEWLVNSSRILIWEDGSLEINNITRNDGGIYTCFAENNRGKANSTGTLVITDPTRIILAPINADITVGENATMQCAASFDPALDLTFVWSFNGYVIDFNKENIHYQRNFMLDSNGELLIRNAQLKHAGRYTCTAQTIVDNSSASADLVVRGPPGPPGGLRIEDIRATSVALTWSRGSDNHSPISKYTIQTKTILSDDWKDAKTDPPIIEGNMEAARAVDLIPWMEYEFRVVATNTLGRGEPSIPSNRIKTDGAAPNVAPSDVGGGGGRNRELTITWAPLSREYHYGNNFGYIVAFKPFDGEEWKKVTVTNPDTGRYVHKDETMSPSTAFQVKVKAFNNKGDGPYSLVAVINSAQDAPSEAPTEVGVKVLSSSEISVHWEHVLEKIVESYQIRYWAAHDKEEAANRVQVTSQEYSARLENLLPDTQYFIEVGACNSAGCGPPSDMIEAFTKKAPPSQPPRIISSVRSGSRYIITWDHVVALSNESTVTGYKVLYRPDGQHDGKLYSTHKHSIEVPIPRDGEYVVEVRAHSDGGDGVVSQVKIS
2 | – | – | – | – | no binding | LRRC4B extracellular domain (receptor, human, UniProt Q9NT99 36-576, looked up, extracellular domain; ECD-Fc prey; also called NGL-3; netrin-G ligand-3) AGGGGVAVTSAAGGGSPPATSCPVACSCSNQASRVICTRRDLAEVPASIPVNTRYLNLQENGIQVIRTDTFKHLRHLEILQLSKNLVRKIEVGAFNGLPSLNTLELFDNRLTTVPTQAFEYLSKLRELWLRNNPIESIPSYAFNRVPSLRRLDLGELKRLEYISEAAFEGLVNLRYLNLGMCNLKDIPNLTALVRLEELELSGNRLDLIRPGSFQGLTSLRKLWLMHAQVATIERNAFDDLKSLEELNLSHNNLMSLPHDLFTPLHRLERVHLNHNPWHCNCDVLWLSWWLKETVPSNTTCCARCHAPAGLKGRYIGELDQSHFTCYAPVIVEPPTDLNVTEGMAAELKCRTGTSMTSVNWLTPNGTLMTHGSYRVRISVLHDGTLNFTNVTVQDTGQYTCMVTNSAGNTTASATLNVSAVDPVAAGGTGSGGGGPGGSGGVGGGSGGYTYFTTVTVETLETQPGEEALQPRGTEKEPPGPTTDGVWGGGRPGDAAGPASSSTTAPAPRSSRPTEKAFTVPITDVTENALKDLDDVMKTTK
